Source: patent US20230089604A1, “ANTI-ADSORPTION SOLUTION” (Universiteit Gent, priority 2019, published 2023)

Experiments:
Format in all cases: physicochemical
[1] = Proof of concept (pivotal experiment): D-optimal design for the injection solvent and vial coating that minimize glass adsorption, UHPLC-MS/MS peak area
Protocol: 36 model peptides were selected for evaluation of the anti-adsorption diluent general functionality. The most suitable solvent composition and need of vial coating with the anti-adsorption diluent was evaluated via a D-optimal design model generated by Modde software (Umetrics, Umea, Sweden).
The peptides were analyzed at the concentration specified in Table 5. For model optimization, the analysis wizard was used. […] In the next step, the non-significant model terms (i.e. those not contributing to a higher R^2 and/or Q^2) were removed via the coefficient plot. Outliers in the residuals normal probability plot and the observed versus predicted plot were removed. The optimum was calculated using the optimizer tool of the Modde software.
Using the same UHPLC-MS/MS apparatus as previously described in the proof of principle, the column compartment was kept at 60° C. and the sample compartment at 10° C. respectively. […] The peptides analyzed using the HILIC amide or C18 column system are mentioned in Table 7. […]
To further investigate the wide applicability of this novel anti-adsorption diluent, 36 peptides were selected. […] The necessity of prior coating the vial with anti-adsorption diluent was also evaluated in the same D-optimal design model. Prior to this experiment, the LC-MS suitability of the anti-adsorption diluent was evaluated by injecting the anti-adsorption diluent as such. […]

[2] = Proof of principle (pilot experiment): peptide recovery over time in uncoated glass vial inserts, UHPLC-MS/MS; details: anti-adsorption diluent Source 1, 100 ng/mL, glass vial insert
Protocol: The peptide with amino acid sequence […] (SEQ ID No: 1) was stored in uncoated (U)HPLC vial inserts at a concentration of 100 ng/mL in 2 different solvents for a total of approximately 2 h. […] The vials were stored in the UHPLC autosampler compartment during analysis and at 0 min a vial containing solvent 1 and 100 ng/mL peptide was injected onto the UHPLC-MS/MS to serve as reference. The peptide recovery was calculated by dividing the peptide peak area of each time point and condition by the peptide peak area of sample 0 min in solvent 1. Appropriate blank samples were first subjected to the UHPLC-MS/MS for evaluation of interfering substances. This experiment was performed in uniplicate.
UHPLC-MS/MS of peptide […] was conducted with an Acquity H-class quaternary solvent manager, connected to an Acquity Xevo TQ-S triple quadrupole mass spectrometer (Waters, Milford, Mass., USA). The column compartment was kept at 45° C. and the sample compartment at 20° C. Mobile phase A consisted of water/acetonitrile/dimethylsulfoxide 90/5/5 V/V/V supplemented with 0.1% m/V formic acid and mobile phase B consisted of water/acetonitrile/dimethylsulfoxide 5/90/5 V/V/V supplemented with 0.1% m/V formic acid. Chromatography was performed with an Acquity UHPLC BEH300 C18 column (2.1×100 mm, 1.7 μm particle size) (Waters) protected with a suitable guard column. […]

[3] = Functional evaluation of anti-adsorption diluent from 3 sources (consecutive transfer to 5 glass inserts); details: 100 ng/mL in 50/50 V/V water/acetonitrile + 0.1% m/V formic acid
Protocol: Functional evaluation of anti-adsorption diluent from 3 sources. The functionality of anti-adsorption diluent Source 1, Source 2, and Source 3 was evaluated via the peptide […] (SEQ ID No. 1). The peptide was diluted in either solvent (50/50 V/V water/acetonitrile supplemented with 0.1% m/V formic acid) or in 1 of the 3 anti-adsorption diluent sources to a peptide concentration of 100 ng/mL. The solution was either transferred to an insert and immediately analyzed via UHPLC-MS/MS or repeatedly transferred to inserts (5 inserts in total), with analysis of the 5th insert. UHPLC-MS/MS was carried out as previously discussed in the proof of principle (pilot experiment)-section. To prevent peptide degradation, each sample was prepared immediately prior to injection. Per condition 3 replicates were analyzed.
The pilot and pivotal experiments were carried out using anti-adsorption diluent originating from Source 1. Since Bovine Serum Albumin can differ amongst suppliers, anti-adsorption diluent was prepared originating from 3 sources, referred to as Source 1, Source 2, and Source 3. […] (100 ng/mL analytical concentration) was evaluated and (II) the peptide solution was repeatedly transferred from one insert to another (5 inserts in total) with subsequent analysis of the 5th insert. […]

[4] = Peptide stability by HPLC-PDA (0 h vs 3 h); details: 1 mg/mL, 3 h at 20° C.
Protocol: The 3 h peptide stability was evaluated by high performance liquid chromatography equipped with a photo diode array detector.
The peptide stability of peptide […] (SEQ ID No: 1) was evaluated with HPLC-PDA and the Vydac Everest C18 column. The analytical solution (1 mg/mL) in acetonitrile/water (V/V)+0.1% m/V formic acid (i.e. matching solvent composition as the anti-adsorption diluent without hydrolysate components) was chromatographed with the gradient provided in Table 3. Analysis was performed with a Waters Alliance 2695 HPLC with a Waters 2695 Separations Module, combined with a Flow Through Needle, and a Waters 2996 Photodiode Array Detector with Empower 2 software for data acquisition (Waters, Milford, Mass., USA).
The peptide was injected at 0 h and 3 h.

[5] = Anti-adsorption diluent applicability for polypropylene inserts; details: 100 ng/mL, polypropylene insert, anti-adsorption diluent Source 1
Protocol: Anti-adsorption diluent applicability for polypropylene inserts. The functionality of the anti-adsorption diluent Source 1 in polypropylene inserts was evaluated via the peptide […] (100 ng/mL). The peptide was analyzed in (I) a glass insert with 50/50 V/V water/acetonitrile+0.1% m/V formic acid, (II) a polypropylene insert with 50/50 V/V water/acetonitrile+0.1% m/V formic acid, (III) a glass insert with anti-adsorption diluent Source 1, and (IV) a polypropylene insert with anti-adsorption diluent. The UHPLC-MS/MS method provided in the proof of principle experiment was applied. The experiment was performed in triplicate.
Previous experiments were all conducted using glass inserts. Plastic vials and inserts are also widely used for the chromatography of peptides. Therefore, the applicability of the anti-adsorption diluent was evaluated using a polypropylene insert. The peptide […] (100 ng/mL) was either analyzed using a glass or polypropylene insert with or without anti-adsorption diluent (see FIG. 11).

Sequence | Peptide peak area ([1]; 1 nM with anti-adsorption diluent Source 1, glass vial) | Peptide peak area ([1]; 1 nM without anti-adsorption diluent, glass vial) | Glass adsorption of the peptide when using the anti-adsorption diluent [2] | Peptide peak area after transfer to 5 inserts, as % of peak area without transfer [3] | Additional peaks after 3 h incubation (0.5% reporting threshold) [4] | Increase of peptide peak area with anti-adsorption diluent compared to without [5]
EQLSFTSIGILQLLTIGTRSCWFFYCRY (Q49) [Peptide Q49] | 16772.4 | 1363.8 | – | – | – | –
MFPTIPLSRLFDNAMLRAH (Pilot peptide) [pilot experiment peptide] | – | – | completely abolished | approximately 10% | No additional peaks | approximately 30%
